The source of these data is PMC5474359.

The assay concerns the target T1, CD-86, P42081.
T1 chain: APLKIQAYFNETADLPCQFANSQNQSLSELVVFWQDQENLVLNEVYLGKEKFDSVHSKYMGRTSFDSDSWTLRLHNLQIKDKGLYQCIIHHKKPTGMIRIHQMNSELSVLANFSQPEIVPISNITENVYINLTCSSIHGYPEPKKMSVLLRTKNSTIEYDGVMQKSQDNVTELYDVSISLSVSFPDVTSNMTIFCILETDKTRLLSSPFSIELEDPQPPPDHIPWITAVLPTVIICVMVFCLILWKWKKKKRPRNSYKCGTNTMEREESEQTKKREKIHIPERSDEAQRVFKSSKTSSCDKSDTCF
Briefly: fluorescence correlation spectroscopy with photon counting histogram. The following applies: remark: other sources report otherwise.

B1: CD-86, P42081 24-329 (receptor)
chain: T1 chain
For B1, the PCH molecular brightness is 9360 CPSM.
